Laboratory results: article PMC9830511, “Flot2 acts as a novel mediator of podocyte injury in proteinuric kidney disease” (International Journal of Biological Sciences, 2023)

Biological target: T1, GST-Flot2 full length (amino acids 1-428) (mouse, UniProt Q60634 1-428)
T1 construct: it may add a CBP tag as well; also called GST-tagged Flot2
T1 sequence (looked up): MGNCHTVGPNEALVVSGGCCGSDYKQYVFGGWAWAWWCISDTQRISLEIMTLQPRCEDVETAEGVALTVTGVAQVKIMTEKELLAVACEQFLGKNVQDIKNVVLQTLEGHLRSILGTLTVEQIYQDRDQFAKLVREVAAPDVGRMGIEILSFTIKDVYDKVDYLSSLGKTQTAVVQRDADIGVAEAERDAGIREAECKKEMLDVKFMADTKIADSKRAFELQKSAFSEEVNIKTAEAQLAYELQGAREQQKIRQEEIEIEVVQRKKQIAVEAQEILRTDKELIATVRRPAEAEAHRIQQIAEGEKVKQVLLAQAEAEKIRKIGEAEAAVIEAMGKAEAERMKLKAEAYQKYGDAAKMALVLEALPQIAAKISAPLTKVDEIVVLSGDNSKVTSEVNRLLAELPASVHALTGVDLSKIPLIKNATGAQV
Assay: pull-down; GST pull-down: GST-Flot2 (full length) on GST resin, His-podocin (full length); overnight at 4 °C; eluted with 20 mM reduced glutathione; immunoblot with anti-His
Details: both partners purified

B1: His-podocin full length (natural protein, mouse, UniProt Q91X05 1-385, looked up)
chain: MDSRARSSSREAHGRSSRSSSRDDKKAKAGRGSRGRARPDAGAERQSTGRTATRGEPRAPAATATVVDVDEVRGPGEEGTEVVALLESERPEEGIKPSGLGACEWLLVLASLIFIIMTFPFSIWFCIKVVQEYERVIIFRLGHLLPGRAKGPGLFFFLPCLDTYHKVDLRLQTLEIPFHEVVTKDMFIMEIDAVCYYRMENASLLLSSLAHVSKAIQFLVQTTMKRLLAHRSLTEILLERKSIAQDVKVALDAVTCIWGIKVERTEIKDVRLPAGLQHSLAVEAEAQRQAKVRVIAAEGEKAASESLRMAAEILSGTPAAVQLRYLHTLQSLSTEKPATVVLPLPFDMLSLLSSPGNRAQGSINYPSSSKPVEPLNPKKKDSPML
notes: Podocin, mouse, full-length cDNA in pET-28a(+); also called His-tagged podocin; His-tagged mouse podocin
binding result: binds
